# From patent US20150306234
# Residue numbers refer to the chain shown, from its start.
# Columns and labels:
# BDD FVIII mutein S2186C = test system: T1, BDD FVIII mutein S2186C
# T1 sequence: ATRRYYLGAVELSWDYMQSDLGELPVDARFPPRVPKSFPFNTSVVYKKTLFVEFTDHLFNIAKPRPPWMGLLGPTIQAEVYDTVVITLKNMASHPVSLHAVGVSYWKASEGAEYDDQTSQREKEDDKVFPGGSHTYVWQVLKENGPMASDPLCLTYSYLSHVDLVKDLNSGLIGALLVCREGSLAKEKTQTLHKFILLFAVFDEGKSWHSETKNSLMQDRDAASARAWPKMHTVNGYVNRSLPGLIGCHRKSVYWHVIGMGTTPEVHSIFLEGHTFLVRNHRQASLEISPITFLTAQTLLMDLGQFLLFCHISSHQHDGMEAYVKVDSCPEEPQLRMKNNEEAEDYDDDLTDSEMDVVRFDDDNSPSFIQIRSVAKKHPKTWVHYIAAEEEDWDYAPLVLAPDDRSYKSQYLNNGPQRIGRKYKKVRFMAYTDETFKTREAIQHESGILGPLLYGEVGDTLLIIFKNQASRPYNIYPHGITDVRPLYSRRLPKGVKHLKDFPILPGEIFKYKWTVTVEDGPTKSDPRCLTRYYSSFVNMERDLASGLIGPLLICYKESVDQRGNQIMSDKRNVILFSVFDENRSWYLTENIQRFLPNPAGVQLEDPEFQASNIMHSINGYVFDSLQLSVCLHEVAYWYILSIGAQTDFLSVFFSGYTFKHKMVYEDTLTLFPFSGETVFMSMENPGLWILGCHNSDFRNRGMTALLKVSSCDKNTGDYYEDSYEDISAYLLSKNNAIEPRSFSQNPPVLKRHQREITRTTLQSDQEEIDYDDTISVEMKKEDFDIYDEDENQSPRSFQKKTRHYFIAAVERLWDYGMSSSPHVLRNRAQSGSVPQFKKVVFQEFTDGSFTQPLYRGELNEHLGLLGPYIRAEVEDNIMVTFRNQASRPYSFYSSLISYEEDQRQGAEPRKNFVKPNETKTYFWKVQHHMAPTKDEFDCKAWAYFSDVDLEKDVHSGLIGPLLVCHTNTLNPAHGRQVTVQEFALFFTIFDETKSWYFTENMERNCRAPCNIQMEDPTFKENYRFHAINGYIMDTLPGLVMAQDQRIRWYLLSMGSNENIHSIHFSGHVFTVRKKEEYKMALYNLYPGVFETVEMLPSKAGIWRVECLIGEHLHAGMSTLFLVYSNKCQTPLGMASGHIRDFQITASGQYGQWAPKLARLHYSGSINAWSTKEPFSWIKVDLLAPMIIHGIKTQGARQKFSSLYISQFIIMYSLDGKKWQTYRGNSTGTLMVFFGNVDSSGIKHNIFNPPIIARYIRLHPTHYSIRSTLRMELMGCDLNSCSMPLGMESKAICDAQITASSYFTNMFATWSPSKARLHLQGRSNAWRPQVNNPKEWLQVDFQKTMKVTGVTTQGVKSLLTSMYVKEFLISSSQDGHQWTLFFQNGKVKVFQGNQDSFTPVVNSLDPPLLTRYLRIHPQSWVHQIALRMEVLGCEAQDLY
# BDD FVIII mutein F2093C = test system: T2, BDD FVIII mutein F2093C
# T2 sequence: T1 sequence with F1199C, C1292S
substance,measurement,setting,value
"thrombin (Haematologic Technologies, Essex Junction, Vt.)","thrombin cleavage, SDS-PAGE with silver staining",BDD FVIII mutein S2186C,Thrombin digestion of the muteins and control produced the expected cleavage fragments.
same,"thrombin cleavage, SDS-PAGE with silver staining",BDD FVIII mutein F2093C,Thrombin digestion of the muteins and control produced the expected cleavage fragments.
